Measurements reported in article PMC5527686 (Journal of molecular biology, 2017).

Legend:
[1] = molecular target: the molecule itself; experiment: SEC
[2] = molecular target: the molecule itself; experiment: AUC

Protein | stoichiometry N [1] | stoichiometry N [2]
IreB Y79E (purified recombinant) (natural protein, Enterococcus faecalis) MGFTDETVRFDFDDNRKKAISETLETVYRALEEKGYNPINQIVGYLLSGDPAYIPRYQDARNLIRRHERDEIMEELTKEYLANHGIDIK | 2 | 
IreB L81W (purified recombinant) (natural protein, Enterococcus faecalis) MGFTDETVRFDFDDNRKKAISETLETVYRALEEKGYNPINQIVGYLLSGDPAYIPRYQDARNLIRRHERDEIMEELTKYYWANHGIDIK | 2 | 
IreB (purified recombinant wild-type) (natural protein) MGFTDETVRFDFDDNRKKAISETLETVYRALEEKGYNPINQIVGYLLSGDPAYIPRYQDARNLIRRHERDEIMEELTKYYLANHGIDIK | 2 | 2.05
